Measured values: PMC12065857 (Nature Communications, 2025)
No end group written: not given here.

Target: T1, paLptD, LptD from Pseudomonas aeruginosa (as the chain in paLptDEHis) (Pseudomonas aeruginosa, UniProt Q9I5U2 34-924)
T1 sequence: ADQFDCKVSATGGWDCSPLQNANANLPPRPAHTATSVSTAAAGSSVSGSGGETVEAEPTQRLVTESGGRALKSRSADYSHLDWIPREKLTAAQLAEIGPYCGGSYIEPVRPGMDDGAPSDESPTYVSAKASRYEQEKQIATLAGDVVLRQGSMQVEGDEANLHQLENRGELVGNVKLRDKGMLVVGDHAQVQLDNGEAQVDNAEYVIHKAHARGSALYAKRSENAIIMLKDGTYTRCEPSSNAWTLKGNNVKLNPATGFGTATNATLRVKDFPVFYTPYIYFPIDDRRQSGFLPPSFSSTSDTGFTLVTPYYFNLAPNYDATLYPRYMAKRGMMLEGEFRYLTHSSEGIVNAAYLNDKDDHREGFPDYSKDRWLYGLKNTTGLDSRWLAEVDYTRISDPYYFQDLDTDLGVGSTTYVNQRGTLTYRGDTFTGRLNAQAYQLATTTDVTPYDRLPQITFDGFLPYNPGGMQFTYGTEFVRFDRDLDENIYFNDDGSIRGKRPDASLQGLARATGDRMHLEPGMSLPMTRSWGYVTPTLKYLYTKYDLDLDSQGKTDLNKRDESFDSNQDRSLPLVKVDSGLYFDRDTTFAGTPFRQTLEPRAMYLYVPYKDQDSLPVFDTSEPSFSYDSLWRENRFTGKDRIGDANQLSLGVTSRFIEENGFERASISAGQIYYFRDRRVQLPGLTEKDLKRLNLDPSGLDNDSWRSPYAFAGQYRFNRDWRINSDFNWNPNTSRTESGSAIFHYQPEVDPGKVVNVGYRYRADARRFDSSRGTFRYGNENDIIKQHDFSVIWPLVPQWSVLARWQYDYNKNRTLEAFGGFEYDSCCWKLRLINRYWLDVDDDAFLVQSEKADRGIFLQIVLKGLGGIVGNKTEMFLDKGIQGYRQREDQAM
Experiment: crystal structure

## CGLKGPLYFPPADKNAPPPTKPVETQTQSTVPDKNDRATGDGPSQVNY (natural protein, also: three acyl chains (R1, R2, R3) at the N-terminus) [LptM (formerly YifL), endogenous Escherichia coli lipoprotein]
  binding result: binds
